{"source": "patent US20250326824A1", "test_in_all_cases": "cell-based or functional assay", "key": {"mHTTex1-72Q-eGFP (human)": {"target": "mHTTex1-72Q-eGFP (human) (UniProt P42858)", "sequence (P42858 other isoform, or with tags, fused parts or gaps)": "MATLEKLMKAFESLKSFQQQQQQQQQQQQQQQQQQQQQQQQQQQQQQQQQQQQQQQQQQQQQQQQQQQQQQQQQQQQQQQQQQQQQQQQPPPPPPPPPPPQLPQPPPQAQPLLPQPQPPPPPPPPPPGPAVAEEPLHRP"}, "[1]": {"target": "human α-synuclein protein (human)"}, "[2]": {"target": "human α-synuclein-GFP (human)"}}, "note": "Several values for one entry are separate records, joined by “and”; a condition that tells them apart may be missing. Equal entries are not always repeated."}
{"molecule": "scFv-C4-hPEST-E428A-E430A-E431A", "values": [{"measurement": "soluble mHTTex1-72Q-GFP by western blot (EM48/GAPDH, normalized to EV-CON)", "setting": "mHTTex1-72Q-eGFP (human)", "result": "50 to 75 % of control"}]}
{"molecule": "scFv-C4-hPEST-T436A", "values": [{"measurement": "soluble mHTTex1-72Q-GFP by western blot (EM48/GAPDH, normalized to EV-CON) (% relative to control)", "setting": "mHTTex1-72Q-eGFP (human)", "result": "75 to 100"}]}
{"molecule": "scFv-C4-hPEST", "values": [{"measurement": "soluble mHTTex1-72Q-GFP by western blot (EM48/GAPDH, normalized to EV-CON) (% relative to control)", "setting": "mHTTex1-72Q-eGFP (human)", "result": "75 to 100"}]}
{"molecule": "scFv-C4-hPEST-S440A", "values": [{"measurement": "soluble mHTTex1-72Q-GFP by western blot (EM48/GAPDH, normalized to EV-CON)", "setting": "mHTTex1-72Q-eGFP (human)", "result": "25 % of control and 0 % of control"}]}
{"molecule": "scFv-C4-hPEST-E444A", "values": [{"measurement": "soluble mHTTex1-72Q-GFP by western blot (EM48/GAPDH, normalized to EV-CON)", "setting": "mHTTex1-72Q-eGFP (human)", "result": "50 to 75 % of control"}]}
{"molecule": "SS-PEN-N77D-PEST (VHH) VHH: MEFGLSWLFLVAILKGVQGRQIKIWFQNRRMKWKKSRQVQLVESGGGGLVQPGGSLRLSCVTPGGIFSDYAMGWYRQAPGKQRELVADITVSDTTRYSDPVKGRFTISRDNAKDMVYLQMNSLKPEDAAIYTCNAQKWEDRYGSSERYDYWGQGTQVTVSSAHHSEDPAAAYPYDVPDYNPDFPPEVEEQDASTLPVSCAWESGMKRHRAACASASINV", "values": [{"measurement": "reduction of endogenous synuclein by western blot, 3×SNCA cortical cultures given conditioned media", "setting": "[1]", "result": 40, "unit": "%"}, {"measurement": "reduction of endogenous α-synuclein by western blot relative to SS-N77K-hP control, 3×SNCA cortical cultures", "setting": "[1]", "result": 40, "unit": "%"}, {"measurement": "reduction of α-Syn˜eGFP by western blot, recipient ST14A cells given conditioned media", "setting": "[2]", "result": 20, "unit": "%"}]}
{"molecule": "SS-PEN-DB1-PEST (VHH) VHH: MEFGLSWLFLVAILKGVQGRQIKIWFQNRRMKWKKSRAEVQLQASGGGFVQPGGSLRLSCAASGFTSWEDTMGWFRQAPGKEREFVSAISFDANDLSDTSVYYADSVKGRFTISRDNSKNTVYLQMNSLRAEDTATYYCAVASFEILLYGESLHIYWGQGTQVTVSSAAAYPYDVPDYANPDFPPEVEEQDASTLPVSCAWESGMKRHRAACASASINV", "values": [{"measurement": "reduction of endogenous synuclein by western blot, 3×SNCA cortical cultures given conditioned media", "setting": "[1]", "result": 30, "unit": "%"}]}
{"molecule": "SS-435b-N77D-hP (VHH) VHH: VQLVESGGGGLVQPGGSLRLSCVTPGGIFSDYAMGWYRQAPGKQRELVADITVSDTTRYSDPVKGRFTISRDNAKDMVYLQMNSLKPEDAAIYTCNAQKWEDRYGSSERYDYWGQGTQVTVSS", "values": [{"measurement": "reduction of endogenous α-synuclein by western blot relative to SS-N77K-hP control, 3×SNCA cortical cultures", "setting": "[1]", "result": 40, "unit": "%"}]}
